T1: MTR4, full length (human, UniProt P42285 1-1042)
T1 sequence: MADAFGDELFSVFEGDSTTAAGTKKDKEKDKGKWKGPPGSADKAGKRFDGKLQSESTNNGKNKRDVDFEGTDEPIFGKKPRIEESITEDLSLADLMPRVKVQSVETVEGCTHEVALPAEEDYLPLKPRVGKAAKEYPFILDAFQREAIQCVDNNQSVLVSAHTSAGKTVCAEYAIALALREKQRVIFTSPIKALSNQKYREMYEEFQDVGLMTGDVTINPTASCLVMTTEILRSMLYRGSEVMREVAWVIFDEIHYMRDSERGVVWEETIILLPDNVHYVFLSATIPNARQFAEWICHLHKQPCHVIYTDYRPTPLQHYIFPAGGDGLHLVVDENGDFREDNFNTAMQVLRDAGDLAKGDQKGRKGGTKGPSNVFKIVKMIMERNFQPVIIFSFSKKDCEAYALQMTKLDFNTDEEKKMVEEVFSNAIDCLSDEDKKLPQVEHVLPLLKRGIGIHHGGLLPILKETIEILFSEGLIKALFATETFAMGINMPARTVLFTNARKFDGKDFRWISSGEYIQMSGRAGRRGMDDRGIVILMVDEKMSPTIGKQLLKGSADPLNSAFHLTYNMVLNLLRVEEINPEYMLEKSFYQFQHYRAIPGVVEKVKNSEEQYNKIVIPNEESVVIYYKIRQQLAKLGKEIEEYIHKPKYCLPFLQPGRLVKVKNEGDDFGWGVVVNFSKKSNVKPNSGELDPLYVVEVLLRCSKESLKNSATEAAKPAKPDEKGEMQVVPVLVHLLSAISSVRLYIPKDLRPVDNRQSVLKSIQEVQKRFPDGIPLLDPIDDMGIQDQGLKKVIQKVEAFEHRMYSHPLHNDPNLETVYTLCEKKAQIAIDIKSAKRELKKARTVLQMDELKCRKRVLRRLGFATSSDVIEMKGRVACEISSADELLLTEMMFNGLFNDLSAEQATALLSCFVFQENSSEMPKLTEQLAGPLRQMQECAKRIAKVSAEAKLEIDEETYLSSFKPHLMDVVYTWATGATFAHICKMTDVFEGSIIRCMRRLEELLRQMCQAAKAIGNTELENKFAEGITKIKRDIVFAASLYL

B1: Copurified complex of Strep-RBM7core and full-length ZCCHC8 (Z1) (complex)
chain 1: AEADRTLFVGNLETKVTEELLFELFHQAGPVIKVKIPKDKDGKPKQFAFVNFKHEVSVPYAMNLLNGIKLYGRPIKIQFRSGSSHAPQD
chain 2: MAAEVYFGDLELFEPFDHPEESIPKPVHTRFKDDDGDEEDENGVGDAELRERLRQCEETIEQLRAENQELKRKLNILTRPSGILVNDTKLDGPILQILFMNNAISKQYHQEIEEFVSNLVKRFEEQQKNDVEKTSFNLLPQPSSIVLEEDHKVEESCAIKNNKEAFSVVGSVLYFTNFCLDKLGQPLLNENPQLSEGWEIPKYHQVFSHIVSLEGQEIQVKAKRPKPHCFNCGSEEHQMKDCPMPRNAARISEKRKEYMDACGEANNQNFQQRYHAEEVEERFGRFKPGVISEELQDALGVTDKSLPPFIYRMRQLGYPPGWLKEAELENSGLALYDGKDGTDGETEVGEIQQNKSVTYDLSKLVNYPGFNISTPRGIPDEWRIFGSIPMQACQQKDVFANYLTSNFQAPGVKSGNKRSSSHSSPGSPKKQKNESNSAGSPADMELDSDMEVPHGSQSSESFQFQPPLPPDTPPLPRGTPPPVFTPPLPKGTPPLTPSDSPQTRTASGAVDEDALTLEELEEQQRRIWAALEQAESVNSDSDVPVDTPLTGNSVASSPCPNELDLPVPEGKTSEKQTLDEPEVPEIFTKKSEAGHASSPDSEVTSLCQKEKAELAPVNTEGALLDNGSVVPNCDISNGGSQKLFPADTSPSTATKIHSPIPDMSKFATGITPFEFENMAESTGMYLRIRSLLKNSPRNQQKNKKASE
B2: Copurified complex of Strep-RBM7core and ZCCHC8 283-415 + 508-707 (Z4) (complex)
chain 1: B1 chain 1
chain 2: FGRFKPGVISEELQDALGVTDKSLPPFIYRMRQLGYPPGWLKEAELENSGLALYDGKDGTDGETEVGEIQQNKSVTYDLSKLVNYPGFNISTPRGIPDEWRIFGSIPMQACQQKDVFANYLTSNFQAPGVKSGGAVDEDALTLEELEEQQRRIWAALEQAESVNSDSDVPVDTPLTGNSVASSPCPNELDLPVPEGKTSEKQTLDEPEVPEIFTKKSEAGHASSPDSEVTSLCQKEKAELAPVNTEGALLDNGSVVPNCDISNGGSQKLFPADTSPSTATKIHSPIPDMSKFATGITPFEFENMAESTGMYLRIRSLLKNSPRNQQKNKKASE
B3: ZCCHC8, full length (Z1) (natural protein)
chain: B1 chain 2
B4: Copurified complex of Strep-RBM7core and ZCCHC8 1-327 (Z2) (complex)
chain 1: B1 chain 1
chain 2: MAAEVYFGDLELFEPFDHPEESIPKPVHTRFKDDDGDEEDENGVGDAELRERLRQCEETIEQLRAENQELKRKLNILTRPSGILVNDTKLDGPILQILFMNNAISKQYHQEIEEFVSNLVKRFEEQQKNDVEKTSFNLLPQPSSIVLEEDHKVEESCAIKNNKEAFSVVGSVLYFTNFCLDKLGQPLLNENPQLSEGWEIPKYHQVFSHIVSLEGQEIQVKAKRPKPHCFNCGSEEHQMKDCPMPRNAARISEKRKEYMDACGEANNQNFQQRYHAEEVEERFGRFKPGVISEELQDALGVTDKSLPPFIYRMRQLGYPPGWLKEAE
B5: Substrate III (dsRNA)
RNA 1: AGUGCGCUGUAUCUUCAAGGCCACU
RNA 2: AGUGGCCUUGAAGAUACAGCGCACUAAAAAAAAAAUUUUUAAAAA
B6: ZCCHC8 283-415 + 508-707 (Z4) (domain or fragment)
chain: B2 chain 2
B7: ZCCHC8 1-327 (Z2) (domain or fragment)
chain: B4 chain 2
B8: Substrate II (dsRNA)
RNA 1: AGUGCGCUGUAUCUUCAAGGCCACU
RNA 2: AGUGGCCUUGAAGAUACAGCGCACUAAAAAUUUUUAAAAAAAAAA
B9: Substrate I (dsRNA)
RNA 1: AGUGCGCUGUAUCUUCAAGGCCACU
RNA 2: AGUGGCCUUGAAGAUACAGCGCACUUUUUUAAAAAAAAAAAAAAA

Columns and labels:
MTR4, full length [1] = biological target: T1, MTR4, full length; experiment: pull-down
MTR4, full length [2] = biological target: T1, MTR4, full length; experiment: SEC
MTR4;ZCCHC8core;RBM7core = MTR4;ZCCHC8core;RBM7core (Homo sapiens?;Homo sapiens?;Homo …, UniProt P42285;Q6NZY4;Q9Y580 1-1042;1-707;6-94, |del416-507|); experiment: EMSA

| Binder | binding result (MTR4, full length [1]) | binding result (MTR4;ZCCHC8core;RBM7core) | further results |
| --- | --- | --- | --- |
| B1 | binds |  |  |
| B2 | binds |  |  |
| B3 |  |  | binding result (MTR4, full length [2]): binds |
| B4 | binds |  |  |
| B5 |  | binds |  |
| PIPDMSKFATGITPFEFENMAESTGMYLRIRSLLKNSPRNQQKNKKASE (domain or fragment) [Strep-tagged ZCCHC8 C-terminal domain (Z5; 659-707)] | binds |  |  |
| B6 | binds |  |  |
| B7 | binds |  |  |
| B8 |  | binds |  |
| B9 |  | binds |  |
